Values quoted from earlier work, collected in PMC12892997.

What was measured:
[1] = target: SARS-CoV-2 spike protein RBD (Severe acute respiratory syndrome coronavirus 2) (UniProt P0DTC2)
[2] = target: SARS-CoV-2 spike protein (Severe acute respiratory syndrome coronavirus 2) (UniProt P0DTC2)

GRP78, sequence (P11021 19-654): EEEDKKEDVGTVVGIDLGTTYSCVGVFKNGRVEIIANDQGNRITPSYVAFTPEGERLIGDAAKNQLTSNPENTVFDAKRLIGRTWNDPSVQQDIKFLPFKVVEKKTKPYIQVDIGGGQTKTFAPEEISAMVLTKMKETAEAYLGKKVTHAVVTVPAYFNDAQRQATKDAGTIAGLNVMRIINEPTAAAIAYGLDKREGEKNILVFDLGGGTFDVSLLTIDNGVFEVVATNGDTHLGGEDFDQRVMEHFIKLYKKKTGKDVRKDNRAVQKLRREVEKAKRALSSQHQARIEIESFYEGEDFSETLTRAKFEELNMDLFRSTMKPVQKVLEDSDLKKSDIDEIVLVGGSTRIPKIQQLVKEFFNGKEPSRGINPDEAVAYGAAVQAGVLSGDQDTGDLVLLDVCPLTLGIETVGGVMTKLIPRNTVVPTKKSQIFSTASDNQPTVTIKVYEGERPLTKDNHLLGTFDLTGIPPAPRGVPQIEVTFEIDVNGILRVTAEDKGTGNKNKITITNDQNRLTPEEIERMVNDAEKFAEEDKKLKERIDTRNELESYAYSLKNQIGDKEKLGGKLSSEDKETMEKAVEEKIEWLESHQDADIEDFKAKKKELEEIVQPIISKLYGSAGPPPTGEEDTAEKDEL

Substance: CD4 N-terminal domain (from UniProt P01730)
- Kd [1]: 24.5 nM

Substance: GRP78 (from UniProt P11021)
- Kd [2]: 55.2 nM
